In US20170248602A1:
Positions count from the first letter of the chain named. Read-outs that look alike come from different tables or passages of the source.

B1: α-SNAP-25 mouse monoclonal antibody 2E2A6 (antibody, V domains shown)
VH: QVQLQQSDAELVKPGASVKISCRASGYTFTDHSIHWVKQQPGQGLEWIGYIFPGNGNIEYNDKFKGKATLTADKSSGTAYMQLNSLTSEDSAVYFCKRMGYWGQGTSVTVSS
VL: DVLMTQTPLTLSVTIGQPASISCKSSQSLLYTNGKTYLTWLFQRPGQSPKRLIYLVSELDSGVPDRFSGSGSGTDFTLEITRVEAEDLGVYYCLQSAHFPFTFGSGTKLEIKR
B2: α-SNAP-25 mouse monoclonal antibody 3C1A5 (antibody, V domains shown)
VH: QVKLQESGAELVKPGASVKISCKASGYTFTDHSIHWVKQKPGQGLEWIGYLFPGNGNFEYNEKFKGKATLTADKSSSTVYMYLNSLTSEDSAVYFCKRMGYWGQGTTVTVSS
VL: B1 VL with L3V, Y31N, F42I, K50Q, E58K, E79K, T81S, A97S
B3: α-SNAP-25 mouse monoclonal antibody 1D3B8 (antibody, V domains shown)
VH: QVKLQESGAELVKPGASVKISCKASGYIFTDHALHWVRQKPEQGLEWIGYIFPGNGNIEYNEKFKGKATLTADKSSSTAYMQLNSLTSGDSAMYFCKKMDYWGQGTTVTVSS
VL: DVLMTQTPLSLPVSLGDQASISCRSSQSIVHSNGNTYLEWYLQKPGQSPKLLIYKVSNRFSGVPDRFSGSGSGTDFTLKISRVEAEDLGVYYCFQGSHVPPTFGAGTKLELKR
B4: α-SNAP-25 mouse monoclonal antibody 2C9B10 (antibody, V domains shown)
VH: B2 VH with V79A, Y82H, R98K, G100D
VL: DIQMTQSPASLSASVGETVTITCRTTENIYSYFVWSQQRQGKSPQLRVYNAKSLAEGVPSSFNVSVSGTQFSLKINSLQPEDFGTYHCQHHYGTPYTFGGGTRLEIRR

Assays:
[1] = biological target: T1, SNAP-25 peptide comprising amino acids 134-197 of SEQ ID NO:5 (human)
[2] = biological target: T1, SNAP-25 peptide comprising amino acids …; test: SPR (BIAcore 3000), peptide on CM5 chip, 1:1 fit

| Binder | Kd [1] | koff [1] | kon [1] | Kd [2] | koff [2] | kon [2] |
| --- | --- | --- | --- | --- | --- | --- |
| B1 | 0.405 nM | 6.74e-05 s⁻¹ | 166000 M⁻¹ s⁻¹ | 0.09 nM | 0.000153 s⁻¹ | 1.7e+06 M⁻¹ s⁻¹ |
| B2 | – | – | – | 1.33 nM | 0.000288 s⁻¹ | 217000 M⁻¹ s⁻¹ |
| B3 | – | – | – | 0.05 nM | 5.78e-05 s⁻¹ | 1.06e+06 M⁻¹ s⁻¹ |
| B4 | – | – | – | 27.1 nM | 0.000311 s⁻¹ | 11500 M⁻¹ s⁻¹ |
